Laboratory results reported in publication PMC9905591, “A single point mutation expands the applicability of ostreolysin A6 in biomedicine” (Scientific Reports, 2023).

Target: T1, Ostreolysin A6 (Pleurotus ostreatus, UniProt P83467 1-138)
T1 sequence: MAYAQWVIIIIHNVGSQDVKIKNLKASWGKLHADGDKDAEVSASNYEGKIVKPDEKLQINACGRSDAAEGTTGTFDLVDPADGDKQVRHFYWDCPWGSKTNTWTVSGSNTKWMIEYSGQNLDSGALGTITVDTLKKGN
Test: cell-based or functional assay

B1: Δ48PlyB (pleurotolysin B) (domain or fragment, Pleurotus ostreatus, UniProt Q5W9E8 49-523, looked up)
chain: SQAGDTLNDVIQDPTRRNKLINDNNLLKGIIMGRDGPVPSSRELIVRPDTLRAIINNRATIETTTMEAEFTETLMESNYNSASVKVSAPFITANSEYSESSSFKNTETEKSMYTSSRYLFPQGRIDFTTPDSGFDDVIKLSPQFTSGVQAALAKATGTEKREALQNLFQEYGHVFRTKVHIGGVLSAHTMETFSRSENETEVKQDVKAGLEGAVKGWGGGATAGHGNTQGTITTSQNRKLNVKYIVNGGDYTKIQNTEEWVASTNQSEHWRVIEVTEVTAVADLLPQPIRGQVKDLLKPLLGKWVDVEKVPGLESLPVSVYRPKGAIPAGWFWLGDTADASKALLVKPTLPARSGRNPALTSLHQGSGMTEQPFVDLPQYQYLSTYFGSFAHDTPPGSTLRGLRPDHVLPGRYEMHGDTISTAVYVTRPVDVPFPEDECFDLKSLVRVKLPGSGNPPKPRSALKKSMVLFDSGEK
  hazard ratio against buffer, Kaplan-Meier survival of Colorado potato beetle larvae on OlyA6/PlyB-treated leaf discs: 3.5
